Test results taken from article PMC2659767, “Tracking Membrane Protein Association in Model Membranes” (PLoS ONE, 2009).

T1: OprM trimer, unlabeled (Pseudomonas aeruginosa, UniProt Q51487 18-485, palmitoyl moiety (said of the protein in general))
T1 construct: OprM, outer membrane protein of the MexA-MexB-OprM efflux pump of Pseudomonas aeruginosa; also called outer membrane protein OprM; source: expressed and purified as previously described [50]; solubilized in 1% beta-octylglucoside, then inserted into the L3 sponge phase
T1 sequence: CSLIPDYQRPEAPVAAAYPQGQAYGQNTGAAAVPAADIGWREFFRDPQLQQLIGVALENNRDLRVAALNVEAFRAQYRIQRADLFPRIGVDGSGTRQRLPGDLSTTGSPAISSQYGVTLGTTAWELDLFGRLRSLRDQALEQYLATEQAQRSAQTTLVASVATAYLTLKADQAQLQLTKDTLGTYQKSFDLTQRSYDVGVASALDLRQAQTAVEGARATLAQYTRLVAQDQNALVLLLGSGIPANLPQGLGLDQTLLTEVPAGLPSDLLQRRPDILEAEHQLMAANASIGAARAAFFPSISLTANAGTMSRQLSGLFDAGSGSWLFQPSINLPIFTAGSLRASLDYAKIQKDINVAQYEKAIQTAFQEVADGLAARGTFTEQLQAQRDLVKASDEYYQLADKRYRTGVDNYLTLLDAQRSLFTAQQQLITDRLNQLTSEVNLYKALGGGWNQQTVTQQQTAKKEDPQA

B1: MexA, mature form bearing a palmitoyl moiety, FITC-labeled (natural protein)
chain: CGKSEAPPPAQTPEVGIVTLEAQTVTLNTELPGRTNAFRIAEVRPQVNGIILKRLFKEGSDVKAGQQLYQIDPATYEADYQSAQANLASTQEQAQRYKLLVADQAVSKQQYADANAAYLQSKAAVEQARINLRYTKVLSPISGRIGRSAVTEGALVTNGQANAMATVQQLDPIYVDVTQPSTALLRLRRELASGQLERAGDNAAKVSLKLEDGSQYPLEGRLEFSEVSVDEGTGSVTIRAVFPNPNNELLPGMFVHAQLQEGVKQKAILAPQQGVTRDLKGQATALVVNAQNKVELRVIKADRVIGDKWLVTEGLNAGDKIITEGLQFVQPGVEVKTVPAKNVASAQKADAAPAKTDSKG
modifications: palmitoyl moiety (on the unique N-terminal cysteine); FITC label
notes: MexA, periplasmic lipoprotein of the MexA-MexB-OprM efflux pump of Pseudomonas aeruginosa, in its mature form; Found monomeric in the sponge phase; also called FITC-labeled MexA; periplasmic protein MexA; source: solubilized in 1% beta-octylglucoside, then inserted into the L3 sponge phase
B2: OprM, FITC-labeled (natural protein)
chain: T1 sequence
modifications: FITC label; palmitoyl moiety (said of the protein in general)
notes: OprM, outer membrane protein of the MexA-MexB-OprM efflux pump of Pseudomonas aeruginosa; Same protein as m2, here labeled with FITC and measured alone; also called FITC-labeled OprM; OprM trimer; source: expressed and purified as previously described [50]; labeled with FITC; inserted into the L3 sponge phase

Experiments:
OprM trimer, unlabeled [1] = target: T1, OprM trimer, unlabeled; experiment: FRAPP (fluorescence recovery after fringe pattern photobleaching); as a5 (dW about 200 A, stoichiometry from free MexA intensity) but at pH 5.5; settings: both partners purified
OprM trimer, unlabeled [2] = target: T1, OprM trimer, unlabeled; experiment: FRAPP (fluorescence recovery after fringe pattern photobleaching); dW about 200 A, pH 7.5; OprM trimer constant at 1 uM, molar ratio r of FITC-labeled MexA to OprM trimer varied; stoichiometry from the intensity I0 of free MexA; settings: both partners purified
[3] = target: the molecule itself; experiment: FRAPP (fluorescence recovery after fringe pattern photobleaching); FITC-labeled OprM alone in the sponge phase, dW>170 A; hydrodynamic radius from the diffusion coefficient compared with crystallographic and electron microscopy data

| Binder | stoichiometry N (OprM trimer, unlabeled [1]) | stoichiometry N (OprM trimer, unlabeled [2]) | stoichiometry N [3] |
| --- | --- | --- | --- |
| B1 | 6 MexA per OprM trimer | 2 MexA per OprM trimer |  |
| B2 |  |  | 3 |
